What was measured:
[1] = molecular target: T1, human 4-1BB extracellular domain, His tag (human, UniProt Q07011 24-186); experiment: SPR, Biacore T200; antibody captured on Protein G chip, 4-1BB ECD.His as analyte
T1 construct: also called hPro1.ECD.His; not shown: C-terminal His tag
Experimental: (§1) Antibodies were characterized for affinity and binding kinetics to human, cynomolgus and mouse 4-1BB by SPR assay using Biacore T200 (GE). Protein G was pre-immobilized to a sensor chip (CMS), and anti-4-1BB antibodies were captured when injected to the chip. Various concentrations of human 4-1BB and running buffer were flowed through the sensor chip for an association phase, and followed by dissociation. The association and dissociation curve was analyzed using Biacore T200 Evaluation software Version 2.0.

[2] = molecular target: human 4-1BB protein (coated on ELISA plates) (human, UniProt Q07011 24-186, limits assumed); experiment: competition ELISA on plate-coated human 4-1BB; competitor: biotinylated BMK4, detected with streptavidin-HRP, OD450-OD540
Experimental: Plates were pre-coated with human 4-1BB protein at 4° C. overnight. After blocking, various concentrations of testing antibodies were pre-mixed with biotinylated BMK antibodies and added to the plates. The plates were incubated at ambient temperature for 1 hour. The binding of the BMK antibodies to human 4-1BB was detected by streptavidin-HRP. The color was developed by dispensing TMB substrate, and then stopped by 2N HCl. The absorbance was read at 450 nm and […] using a microplate spectrophotometer.

OX40 = molecular target: T2, OX40 (human, UniProt P43489 29-216, limits assumed); experiment: ELISA on plate-coated antigen, HRP goat anti-human IgG Fc, OD450-OD540; antibody concentration not given
T2 sequence (looked up): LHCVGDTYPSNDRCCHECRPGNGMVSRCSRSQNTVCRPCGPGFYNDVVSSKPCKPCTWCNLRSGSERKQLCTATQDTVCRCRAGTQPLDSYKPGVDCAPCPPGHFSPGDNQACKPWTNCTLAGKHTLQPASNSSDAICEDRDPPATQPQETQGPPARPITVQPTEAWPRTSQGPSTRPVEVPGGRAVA
Experimental: (§2) Cross-reactivity to TNFR family members OX40, CD40 and GITR was determined by ELISA. Plates (Nunc) were coated with OX40, CD40 or GITR overnight at 4° C. After blocking and washing, anti-4-1BB antibodies were added to the plates and incubated at room temperature for 1 h. The plates were then washed and subsequently incubated with secondary antibody, HRP Conjugated Goat anti-human IgG Fc Fragment antibody (Bethyl), for 45 min. After washing, TMB substrate was added and the color reaction was stopped by 2M HCl. The absorbance at 450 and 540 nm were read using a microplate reader (Molecular Device).

CD40 = CD40 (human, UniProt P25942 21-193, limits assumed); experiment: as above
Experimental: as §2

GITR = molecular target: T3, GITR (human, UniProt Q9Y5U5 26-161, limits assumed); experiment: as above
T3 sequence (looked up): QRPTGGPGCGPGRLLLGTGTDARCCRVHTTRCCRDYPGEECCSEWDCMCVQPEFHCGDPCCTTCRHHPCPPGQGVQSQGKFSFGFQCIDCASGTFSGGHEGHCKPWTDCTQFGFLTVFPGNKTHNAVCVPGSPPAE
Experimental: as §2

[3] = molecular target: T4, cynomolgus 4-1BB extracellular domain, His tag (cynomolgus, UniProt A9YYE7 24-186); experiment: SPR, Biacore T200; antibody captured on Protein G chip, cynomolgus 4-1BB ECD.His as analyte
T4 construct: extracellular domain; also called cynoPro1.ECD.His; ACRO-41B-C52H4; not shown: His tag
Experimental: as §1

[4] = molecular target: T5, mouse 4-1BB extracellular domain, His tag (mouse, UniProt P20334 24-187); experiment: SPR, Biacore T200; antibody captured on Protein G chip, mouse 4-1BB ECD.His as analyte
T5 construct: extracellular domain; also called mPro1.ECD.His; not shown: His tag
T5 sequence (looked up): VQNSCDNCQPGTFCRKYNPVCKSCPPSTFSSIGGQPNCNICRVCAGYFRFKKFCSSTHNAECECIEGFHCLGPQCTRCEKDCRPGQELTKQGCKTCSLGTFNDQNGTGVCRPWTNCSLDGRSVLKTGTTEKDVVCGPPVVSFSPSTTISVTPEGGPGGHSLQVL
Experimental: as §1

[5] = molecular target: T6, human 4-1BB, full-length, on cells (human, UniProt Q07011 24-255); experiment: flow cytometry on human 4-1BB-expressing CHO-K1 cells, PE goat anti-human IgG Fc, MFI
T6 construct: also called human 4-1BB expressing CHO-K1 cells; cell surface 4-1BB
Experimental: Human 4-1BB-expressing CHO-K1 cells were transferred into 96-well U-bottom plates at a density of 1×10⁵ cells/well. […] After washing, the secondary antibody, PE labeled Goat anti-human IgG Fc Fragment (Jackson ImmunoResearch), was applied and incubated with cells at 4° C. in the dark for 1 h. The cells were then washed and re-suspended in PBS and then analyzed by a flow cytometer (BD).

[6] = molecular target: T7, mouse 4-1BB, full-length, on cells (mouse, UniProt P20334 24-256); experiment: flow cytometry on murine 4-1BB-expressing CHO-K1 cells, PE goat anti-human IgG Fc, MFI
T7 construct: whole, on cells; also called murine 4-1BB expressing CHO-K1 cells
Experimental: Murine 4-1BB-expressing CHO-K1 cells were transferred into 96-well U-bottom plates at a density of 1×10⁵ cells/well. Testing antibodies were serially diluted in PBS containing 1% BSA, and incubated with cells at 4° C. for 1 h. After washing, the secondary antibody, PE labeled Goat anti-human IgG Fc Fragment (Jackson ImmunoResearch), was applied and incubated with cells at 4° C. in the dark for 1 h. The cells were then washed and resuspended in PBS and then analyzed by flow cytometer (BD).

Binder | Kd [1] [nM] | koff [1] [s⁻¹] | kon [1] [M⁻¹ s⁻¹] | IC50 (read off the curve) [2] [nM] | binding result (OX40) | binding result (CD40) | binding result (GITR) | Kd [3] [nM] | koff [3] [s⁻¹] | kon [3] [M⁻¹ s⁻¹] | Kd [4] [nM] | koff [4] [s⁻¹] | kon [4] [M⁻¹ s⁻¹] | EC50 (read off the curve) [5] [nM] | EC50 (read off the curve) [6] [nM]
2.19.8-u1-3-hIgG1L (antibody, V domains shown, Fully human antibody) VH: QVQLVESGGGLVKPGGSLRLSCAASGFTFSDYFMSWIRQAPGKGLEWVSYISNAGSSKYYADSVKGRFTISRDNAKNSLYLQMNSLRAEDTAVYYCVRDPYSGSYSGWFDPWGQGTLVTVSS VL: SYDLTQPPSVSVSPGQTASITCSGDDLGDKYTSWYQQKPGQSPVLVVYQDHKRPSGIPERFSGSNSGNTATLTISGTQAMDEADYYCQAWDKGIVVFGGGTKLTVL | 0.0257 | 6.48e-05 | 2.52e+06 | ~0.9 | no binding | no binding | no binding | 0.0164 | 2.96e-05 | 1.81e+06 | 26.1 | 0.975 | 3.73e+07 | ~0.07 | –
2.19.8-u1-3-hIgG4L (antibody, V domains shown) VH: QVQLVESGGGLVKPGGSLRLSCAASGFTFSDYFMSWIRQAPGKGLEWVSYISNAGSSKYYADSVKGRFTISRDNAKNSLYLQMNSLRAEDTAVYYCVRDPYSGSYSGWFDPWGQGTLVTVSS VL: SYDLTQPPSVSVSPGQTASITCSGDDLGDKYTSWYQQKPGQSPVLVVYQDHKRPSGIPERFSGSNSGNTATLTISGTQAMDEADYYCQAWDKGIVVFGGGTKLTVL | 0.0177 | 3.74e-05 | 2.11e+06 | ~1 | no binding | no binding | no binding | 0.0158 | 2.93e-05 | 1.86e+06 | 18.4 | 0.215 | 1.17e+07 | ~0.06 | –
2.27.16-u1-1-hIgG1L (antibody, V domains shown, Fully human antibody) VH: QEQLQESGPGLVKPSQTLSLTCTVSGGSINSQGYYWSWIRQHPGKGLEWIGYIYDSGSAYYNPSLERRVAISLDTSKNQFSLNLNSVTVADTAVYYCARIVAAGRIDPWGQGTLVTVSS VL: SYVLTQPPSVSVAPGQTARMTCGGDNIGIKIVHWYQQKAGQAPVLVVYDDNDRPSGIPDRFSGSNSGNTATLTISRVAAGDEADYYCQVWDRRSDHVVFGGGTKLTVL | – | – | – | – | no binding | no binding | no binding | 0.142 | 3.07e-05 | 217000 | 8.49 | 0.00134 | 158000 | – | ~0.9
2.27.16-u1-1-hIgG4L (antibody, V domains shown) VH: QEQLQESGPGLVKPSQTLSLTCTVSGGSINSQGYYWSWIRQHPGKGLEWIGYIYDSGSAYYNPSLERRVAISLDTSKNQFSLNLNSVTVADTAVYYCARIVAAGRIDPWGQGTLVTVSS VL: SYVLTQPPSVSVAPGQTARMTCGGDNIGIKIVHWYQQKAGQAPVLVVYDDNDRPSGIPDRFSGSNSGNTATLTISRVAAGDEADYYCQVWDRRSDHVVFGGGTKLTVL | – | – | – | – | no binding | no binding | no binding | 0.439 | 0.000101 | 230000 | 6.27 | 0.00136 | 217000 | – | ~0.8

— patent US20210230287A1 (WUXI BIOLOGICS SHANGHAI, published 2021)
